# Reference: patent US20200368364A1, “CYSTEINE PEPTIDE-ENABLED ANTIBODIES” (City of Hope, priority 2016, published 2020)
# B1: templated αCD16-Fab construct with the C-terminal fusion (175Cys trastuzumab Fab + C-terminal meditope αCD16 nanobody) (bispecific antibody, part only; not given: trastuzumab Fab chains, V domains shown, part only)
# VHH: EVQLVESGGELVQAGGSLRLSCAASGLTFSSYNMGWFRRAPGKEREFVASITWSGRDTFYADSVKGRFTISRDNAKNTVYLQMSSLKPEDTAVYYCAANPWPVAAPRSGTYWGQGTQVTVSSGSHHHHHHGGSQFDLCTRRLQS
# Molecular target: FcγRIIIa on Jurkat effector cells (UniProt P08637)
# Experiment: cell-based or functional assay
# Sequence of FcγRIIIa on Jurkat effector cells (P08637 17-254 limits assumed): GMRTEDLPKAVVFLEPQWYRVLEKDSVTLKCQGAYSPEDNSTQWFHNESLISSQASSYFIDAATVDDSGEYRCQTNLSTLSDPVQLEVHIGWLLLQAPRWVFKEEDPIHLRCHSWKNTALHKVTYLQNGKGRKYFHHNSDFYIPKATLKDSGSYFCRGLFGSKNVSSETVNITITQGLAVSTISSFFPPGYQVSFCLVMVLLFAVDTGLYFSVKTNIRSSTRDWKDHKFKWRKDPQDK
binder,measurement,value
B1,"EC50 of in vitro ADCC reporter assay (SKBR3 targets, Jurkat effector cells), independent measurement 1",3.2 pM
same,"EC50 of in vitro ADCC reporter assay (SKBR3 targets, Jurkat effector cells), independent measurement 2",4.7 pM
